Here are results for three molecules from US11932908B2, “Compositions and methods for diagnosis and treatment of epilepsy” (THE REGENTS OF THE UNIVERSITY OF CALIFORNIA, priority 2004, dated 2024).

Entries after “also recorded” stand apart in the source; their conditions may differ. Read-outs that look alike come from different tables or passages of the source.

The conditions of data set [1]: cited from earlier work.
The test system of the next data set is T type VDCC. The conditions noted are these: 500 μmol/L; cultured fetal rat cortical neurons; cited from earlier work.
The target in another data set is N type HVDCC (Homo sapiens, UniProt Q00975). Particulars: cited from earlier work.
A further data set deals with JME seizures. Particulars: JME patients, cited from earlier work.
A further data set deals with P type HVDCC (Homo sapiens, UniProt O00555). The conditions noted are these: cited from earlier work.
In data set [2] the test system is high voltage activated calcium currents (HVDCC). Particulars: 500 μmol/L; cited from earlier work.
For another data set, the system named is L-type HVDCC. The conditions noted are these: cited from earlier work.
In data set [3] the test system is mouse hippocampal primary culture neurons.
Method: Mouse hippocampal neurons primary culture. Hippocampal neurons were isolated from embryonic day 16 mice and plated at 1-2×10^5 cells per well in 24 well plate containing glass coverslips coated with poly-1-lysine and grown in serum-free NEUROBASAL™ media supplemented with B27, 0.5 mM L-glutamine (Invitrogen).
Transfection and immunostaining of mouse hippocampal neurons. […] Cultures were fixed with 4% paraformaldehyde in PBS 16 and 48 hours after transfection, permeabilized with 0.3% Triton X-100, blocked in 3% normal goat serum in PBS, and treated with mouse monoclonal anti-MAP-2 antibody (1:500; Sigma) and Alexa fluor 594 goat anti-mouse IgG antibody (1:1000; Molecular Probes).
TUNEL assay. […] Forty-eight hours after transfection, neuronal apoptosis was detected using DeadEndTM Fluorometric TUNEL System (Promega). Nuclei were visualized with Hoescht 33342 (Molecular Probes). These cells were also stained with anti-Myc antibody (1:200; Cell Signaling) and Alexa fluor 594 goat anti-rabbit IgG antibody (1:1000). All experiments were carried out in duplicate wells and at least repeated three times. Neuron cells were observed on a confocal microscope (OLYMPUS FLUOVIEW) following 48 hours post transfection.
Cell death analyses with EFHC1 mutants. […] Surviving cell numbers were scored by counting GFP fluorescent-positive cells that attached to dishes. At each counting, detached cells (dead cells) were carefully removed by changing culture medium. Morphologies of cells (cell shape, length and number of neurites, shrinkage, etc.) were not considered for the counting. Surviving cell numbers were scored at 24, 36, and 48 hours after transfection. Analyses were repeated twice by using two independently prepared expression construct DNAs. In total, neurons in seven wells of 24 well plates were counted for each transfection and time point. Experiments were performed in a blinded fashion.
The next data set relates to C-terminus of Cav2.2. Briefly: Co-immunoprecipitation assay in HEK cells, Cav2.2 C-terminus. Type of data set: binding. The conditions noted are these: tagged proteins co-expressed in HEK cells. As to the method:
(§1) Immunoprecipitation. HEK cells co-transfected with expression constructs were collected 20 hrs post transfection. The cells were washed in PBS, scraped and homogenized in the lysis buffer (10 mM Tris pH 8.0, 150 mM NaCl, 5 mM EDTA) supplemented with protease inhibitors (Complete; Roche). Cellular debris was removed by centrifugation at 12,000×g for 10 min at 4° C. The supernatants were precleared with protein G-Sepharose (Amersham Pharmacia Biotech) for 2 h at 4° C. and then incubated with monoclonal anti-Flag M2-Agarose beads (Sigma) or anti-Myc antibody (Santa Cruz) for 12 hrs at 4° C. Protein G-Sepharose was used for precipitation with anti-Myc antibody. The beads were washed with lysis buffer five times and then eluted either with Flag peptide or SDS sample buffer for immunoblot analyses.
(§2) Western blot analysis. Confluent HEK cells transiently transfected with expression constructs were placed on ice and washed twice with ice-cold PBS. Cells were scraped from the dishes and homogenized in a hypotonic buffer (0.25M sucrose, 10 mM Tris-HCl, 10 mM NaCl, 1 mM EDTA, pH7.5) supplemented with mixture of protease inhibitors (Complete; Roche). The lysate was centrifuged at 3,300 g for 5 min. to remove nuclei and the supernatant was used as total cytosolic protein. […]

For the next data set, the system named is C-terminus of Cav2.3. Briefly: Co-immunoprecipitation assay in HEK cells, Cav2.3 C-terminus. Particulars: tagged proteins co-expressed in HEK cells; listed as WT. Format: binding. How it is done: as §1, §2
A further data set relates to C-terminus of Cav2.1. Briefly: Co-immunoprecipitation assay in HEK cells, Cav2.1 C-terminus. Type of data set: binding. Particulars: tagged proteins co-expressed in HEK cells. As to the method: as §1, §2
Another data set concerns the target T1, PQ type VDCC (Cav2.1) (Oryctolagus cuniculus, UniProt P27884).
T1 construct: expressed in transfected cells; host or cells: HEK cell line
The experiment in a line: Patch-clamp analyses of HEK cell line with P/Q type VDCCs and wild type EFHC1 or mutant constructs. Type of data set: cell-based.

For a further data set, the system named is Bid. The experiment in a line: Co-expression with DsRed-Bid vector (marker for caspase activation). Format: cell-based. Particulars: fetal mouse primary hippocampal neuron. The text has this: Clarifying the exact stage or stages of apoptosis thru which myoclonin/EFHC1 acts and by what stage JME mutations reverse apoptosis is important for development of a curative treatment. Typically, apoptotic stimuli, through a Bcl-2 family mediated checkpoint, cause redistribution of cytochrome-c from mitochondria to cytosol. Cytosolic cytochrome-c binds to APAF-1 in the presence of dATP or ATP, result in recruitment and activation of caspase 9 and subsequent cleavage of caspase 3. Caspase 3 ultimately produces extensive DNA fragmentation. […] After establishing Bid activation, the next step is to establish that myoclonin acting through Bid, cause mitochondrial cytochrome C release and then caspase 3 activation. After establishing this step, studies will ask whether myoclonin also acts thru the AIF and a caspase 3 independent cell death mechanisms.

A further data set addresses T2, R-type VDCC (Cav2.3) (Oryctolagus cuniculus, UniProt Q02343).
T2 construct: expressed in transfected cells; host or cells: BHK (BII-104-2) cells
The experiment in a line: Patch-clamp analyses of BHK cells stably expressing Cav2.3 transfected with EFHC1 constructs. Type of data set: cell-based. The conditions noted are these: whole cell patch-clamp, 24-48 hr after transfection. How it is done:
Electrophysiological analysis. A baby hamster kidney (BHK) cell line BHK (BII-104-2) stably transfected with the ociE (BII), α2/δ and β1a subunits, were cultured in DMEM medium containing 10% fetal bovine serum (FBS), 30 U/mL penicillin and 30 μg/mL streptomycin. To transiently express wild type or mutant EFHC1, BHK (BII-104-2) cells were transfected with the pEGFP-C2 plasmids (Clonetech) containing EGFP fused with cDNA for EFHC1 or its mutants using SuperFect Transfection Reagent (QIAGEN). For control experiments, EGFP was transiently expressed by transfecting BHK (BII-104-2) with the same amount of pEGFP without the EFHC1 inserts. Cells were trypsinized, diluted with the DMEM medium, and plated onto glass coverslips 18 hrs after transfection. Ca^2+ currents were recorded 24-48 hr after transfection from GFP-positive cells. Currents from BHK (BII-104-2) cells were recorded at room temperature (22-25° C.) using patch-clamp techniques of whole cell mode with an EPC-9 amplifier (HEKA, Germany). Patch pipettes were made from borosilicate glass capillaries (1.5 mm outer diameter and 0.87 mm inner diameter; Hilgenberg) by using a model P-97 Flaming-Brown micropipette puller (Sutter Instrument Co., CA). Pipette resistance ranged from 2 to 3 MΩ when filled with the pipette solutions described below. The series resistance was electronically compensated to >70% and both the leakage and the remaining capacitance were subtracted by −P/6 method. Currents were sampled at 100 kHz in activation kinetics, otherwise sampled at 50 kHz and filtered at 10 kHz. Calcium currents were recorded in an external solution that contained (in mM): 3 CaCl2, 148 tetraethylammonium chloride (TEA-C1), 10 glucose, and 10 HEPES, pH adjusted to 7.4 with Tris-OH. The pipette solution contained (in mM): 85 Cs-aspartate, 40 CsCl, 4 MgCl2, 5 EGTA, 2 ATP2Na, 5 HEPES, and 8 creatine-phosphate, pH adjusted to 7.4 with CsOH. To determine voltage-dependence of activation, amplitude of tail currents at −50 mV after 5 ms test pulse (−40 to 90 mV) was normalized to the maximal tail current amplitude. […]
In general terms: Patch clamp records ionic current or voltage across a cell membrane.

T2 sequence (Q02343 whole entry): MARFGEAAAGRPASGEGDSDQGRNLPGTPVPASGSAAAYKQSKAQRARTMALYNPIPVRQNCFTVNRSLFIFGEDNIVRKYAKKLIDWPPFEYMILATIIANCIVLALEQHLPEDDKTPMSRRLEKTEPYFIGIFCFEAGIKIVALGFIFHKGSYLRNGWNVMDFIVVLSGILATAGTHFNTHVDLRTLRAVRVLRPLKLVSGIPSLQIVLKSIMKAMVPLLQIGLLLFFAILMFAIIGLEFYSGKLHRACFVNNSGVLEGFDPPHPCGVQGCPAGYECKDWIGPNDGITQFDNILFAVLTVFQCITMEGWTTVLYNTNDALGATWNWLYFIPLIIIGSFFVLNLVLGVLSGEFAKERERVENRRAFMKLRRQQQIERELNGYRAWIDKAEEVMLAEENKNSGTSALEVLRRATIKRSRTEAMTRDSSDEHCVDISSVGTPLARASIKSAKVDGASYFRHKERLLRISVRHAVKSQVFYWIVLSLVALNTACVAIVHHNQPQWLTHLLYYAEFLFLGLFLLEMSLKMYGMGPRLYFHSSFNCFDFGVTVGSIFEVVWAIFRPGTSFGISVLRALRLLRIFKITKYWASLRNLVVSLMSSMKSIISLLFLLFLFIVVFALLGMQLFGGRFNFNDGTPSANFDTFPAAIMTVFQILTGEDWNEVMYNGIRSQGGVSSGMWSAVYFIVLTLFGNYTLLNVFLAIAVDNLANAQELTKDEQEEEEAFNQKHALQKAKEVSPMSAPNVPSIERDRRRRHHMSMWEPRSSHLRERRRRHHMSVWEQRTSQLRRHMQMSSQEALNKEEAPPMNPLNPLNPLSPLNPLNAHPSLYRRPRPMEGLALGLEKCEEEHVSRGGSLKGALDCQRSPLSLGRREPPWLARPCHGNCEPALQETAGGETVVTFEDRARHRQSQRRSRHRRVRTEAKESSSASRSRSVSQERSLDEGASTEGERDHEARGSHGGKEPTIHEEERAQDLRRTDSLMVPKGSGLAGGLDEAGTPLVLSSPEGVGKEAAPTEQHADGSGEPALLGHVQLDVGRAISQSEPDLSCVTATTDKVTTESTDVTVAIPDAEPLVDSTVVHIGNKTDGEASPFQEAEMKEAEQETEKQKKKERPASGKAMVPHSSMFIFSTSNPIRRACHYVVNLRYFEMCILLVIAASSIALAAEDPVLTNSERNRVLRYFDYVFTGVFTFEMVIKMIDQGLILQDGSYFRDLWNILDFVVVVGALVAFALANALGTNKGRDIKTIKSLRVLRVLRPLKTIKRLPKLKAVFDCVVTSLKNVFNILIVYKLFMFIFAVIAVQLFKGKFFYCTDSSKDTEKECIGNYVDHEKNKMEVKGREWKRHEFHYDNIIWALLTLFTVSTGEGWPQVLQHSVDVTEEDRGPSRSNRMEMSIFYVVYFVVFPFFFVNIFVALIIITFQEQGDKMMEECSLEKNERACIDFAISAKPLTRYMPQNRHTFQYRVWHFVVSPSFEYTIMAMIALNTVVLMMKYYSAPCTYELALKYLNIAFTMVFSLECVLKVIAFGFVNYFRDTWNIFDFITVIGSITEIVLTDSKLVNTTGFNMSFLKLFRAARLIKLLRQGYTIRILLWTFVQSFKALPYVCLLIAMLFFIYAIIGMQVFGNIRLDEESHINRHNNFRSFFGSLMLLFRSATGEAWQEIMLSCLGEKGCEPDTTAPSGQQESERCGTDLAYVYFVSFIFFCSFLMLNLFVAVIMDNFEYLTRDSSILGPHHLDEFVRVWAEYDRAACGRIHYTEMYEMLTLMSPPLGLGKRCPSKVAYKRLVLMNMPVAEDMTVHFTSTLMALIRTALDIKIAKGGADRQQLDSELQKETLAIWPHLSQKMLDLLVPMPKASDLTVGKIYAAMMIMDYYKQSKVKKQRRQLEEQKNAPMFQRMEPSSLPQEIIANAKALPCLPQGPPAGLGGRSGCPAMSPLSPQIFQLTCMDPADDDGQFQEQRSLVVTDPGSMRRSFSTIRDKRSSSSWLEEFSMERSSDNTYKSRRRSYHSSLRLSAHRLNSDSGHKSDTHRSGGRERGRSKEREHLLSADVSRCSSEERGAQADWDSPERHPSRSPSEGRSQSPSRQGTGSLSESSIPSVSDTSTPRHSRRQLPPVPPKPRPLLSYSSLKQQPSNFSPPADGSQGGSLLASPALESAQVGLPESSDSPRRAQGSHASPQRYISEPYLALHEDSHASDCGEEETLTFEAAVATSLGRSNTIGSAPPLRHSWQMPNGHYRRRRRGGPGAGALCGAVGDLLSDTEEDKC
T2 sequence (P13806 27-1106 partner): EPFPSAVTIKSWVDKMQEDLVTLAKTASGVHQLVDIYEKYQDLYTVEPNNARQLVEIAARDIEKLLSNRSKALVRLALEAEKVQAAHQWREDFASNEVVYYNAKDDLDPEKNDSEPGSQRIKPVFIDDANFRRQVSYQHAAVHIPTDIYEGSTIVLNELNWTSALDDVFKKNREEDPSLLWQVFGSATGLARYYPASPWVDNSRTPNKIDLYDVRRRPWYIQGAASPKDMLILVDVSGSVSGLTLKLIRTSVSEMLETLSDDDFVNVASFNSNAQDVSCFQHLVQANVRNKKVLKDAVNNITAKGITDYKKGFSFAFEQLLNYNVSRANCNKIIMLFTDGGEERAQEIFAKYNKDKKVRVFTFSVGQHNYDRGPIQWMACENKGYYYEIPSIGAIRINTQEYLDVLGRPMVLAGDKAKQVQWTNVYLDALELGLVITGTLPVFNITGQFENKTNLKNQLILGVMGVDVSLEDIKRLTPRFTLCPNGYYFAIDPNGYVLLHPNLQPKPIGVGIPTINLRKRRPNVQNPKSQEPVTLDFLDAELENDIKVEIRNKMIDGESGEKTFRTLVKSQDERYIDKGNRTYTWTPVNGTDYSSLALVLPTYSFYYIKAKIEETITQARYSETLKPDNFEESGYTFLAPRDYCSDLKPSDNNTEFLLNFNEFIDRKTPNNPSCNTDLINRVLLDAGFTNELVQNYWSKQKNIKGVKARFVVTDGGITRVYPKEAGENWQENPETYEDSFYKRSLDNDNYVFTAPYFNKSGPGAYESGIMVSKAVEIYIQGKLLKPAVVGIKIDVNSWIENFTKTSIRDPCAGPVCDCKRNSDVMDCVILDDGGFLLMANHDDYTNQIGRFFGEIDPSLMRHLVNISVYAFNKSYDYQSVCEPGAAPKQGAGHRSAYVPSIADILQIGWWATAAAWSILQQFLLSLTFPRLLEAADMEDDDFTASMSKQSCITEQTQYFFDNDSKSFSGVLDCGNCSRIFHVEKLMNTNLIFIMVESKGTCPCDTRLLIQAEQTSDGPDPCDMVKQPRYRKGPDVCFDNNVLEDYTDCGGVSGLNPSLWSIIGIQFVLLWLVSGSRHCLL
T2 sequence (P19517 whole entry partner): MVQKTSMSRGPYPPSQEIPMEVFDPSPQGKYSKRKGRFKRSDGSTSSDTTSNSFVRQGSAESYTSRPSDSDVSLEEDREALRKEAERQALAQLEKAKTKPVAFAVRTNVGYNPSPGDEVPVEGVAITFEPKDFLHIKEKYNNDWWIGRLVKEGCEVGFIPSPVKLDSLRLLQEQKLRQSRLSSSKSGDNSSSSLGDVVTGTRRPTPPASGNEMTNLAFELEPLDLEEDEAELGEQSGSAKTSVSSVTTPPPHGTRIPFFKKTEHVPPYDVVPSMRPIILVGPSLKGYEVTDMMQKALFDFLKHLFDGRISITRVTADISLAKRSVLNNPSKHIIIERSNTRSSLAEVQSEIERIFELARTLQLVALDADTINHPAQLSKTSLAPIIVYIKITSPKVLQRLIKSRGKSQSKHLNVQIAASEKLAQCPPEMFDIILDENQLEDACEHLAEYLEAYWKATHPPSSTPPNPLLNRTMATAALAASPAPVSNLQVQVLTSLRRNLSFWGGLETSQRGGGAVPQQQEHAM

Consider `NS(=O)(=O)Cc1noc2ccccc12` [Zonisamide], for which, in [1], the “Seizure protecting plasma concentrations in humans” value is 15 to 40 µg/mL. Besides, the “T type LVDCC” value with T type VDCC is given as “reduces”. The “N-type Ca^2+ channel activity” value at N type HVDCC (500 μmol/L) was “enhances”. Besides, the entries for the “effect on JME seizures” value in the data set with JME seizures and in the data set with JME seizures (listed as zonizamide) were “suppress JME seizures” and “seizure-suppressing; also recorded: seizure suppressing”, respectively. The “P-type calcium channel activity” value on P type HVDCC (500 μmol/L) is “possibly reduces”. Further, the HVDCC entry in [2] is on record as “does not alter”.
For the molecule `Nc1nnc(-c2cccc(Cl)c2Cl)c(N)n1` [Lamotrigine], the “Seizure protecting plasma concentrations in humans” value in [1] was 3 to 14 µg/mL. Also, the “N type HVDCC” value at N type HVDCC is given as “inhibits”. Further, in the data set with JME seizures, the “effect on JME seizures” value is “seizure-suppressing; also recorded: suppress JME seizures; also recorded: seizure suppressing”. In addition, the “P type HVDCC” value at P type HVDCC was “inhibits”. Also, the “L type HVDCC” value in the data set on L-type HVDCC is on record as “spares”.

B1: EFHC1: myoclonin 1, a 640 amino acid protein with an EF-hand motif encoded by EFHC1 transcript A (SEQ ID NO: 4) (protein, listed as Homo sapiens)
chain: MVSNPVHGLPFLPGTSFKDSTKTAFHRSQTLSYRNGYAIVRRPTVGIGGDRLQFNQLSQAELDELASKAPVLTYGQPKQAPPADFIPAHVAFDKKVLKFDAYFQEDVPMSTEEQYRIRQVNIYYYLEDDSMSVIEPVVENSGILQGKLIKRQRLAKNDRGDHYHWKDLNRGINITIYGKTFRVVDCDQFTQVFLESQGIELNPPEKMALDPYTELRKQPLRKYVTPSDFDQLKQFLTFDKQVLRFYAIWDDTDSMYGECRTYIIHYYLMDDTVEIREVHERNDGRDPFPLLMNRQRVPKVLVENAKNFPQCVLEISDQEVLEWYTAKDFIVGKSLTILGRTFFIYDCDPFTRRYYKEKFGITDLPRIDVSKREPPPVKQELPPYNGFGLVEDSAQNCFTLIPKAPKKDVIKMLVNDNKVLRYLAVLESPIPEDKDRRFVFSYFLATDMISIFEPPVRNSGIIGGKYLGRTKVVKPYSTVDNPVYYGPSDFFIGAVIEVFGHRFIILDTDEYVLKYMESNAAQYSPEALASIQNHVRKREAPAPEAESKQTEKDPGVQELEALIDTIQKQLKDHSCKDNIREAFQIYDKEASGYVDRDMFFKICESLNVPVDDSLVKELIRMCSHGEGKINYYNFVRAFSN
For B1, the neuronal morphology result in data set [3] (16 hours post-transfection) is “shorter neurites and lesser branches; also recorded: shorter neurites and fewer branches”; in data set [3] (16 hours post-transfection, listed as GFP-EFHC1), “shorter neurites and less branches”; in data set [3] (48 hours post-transfection), “signs of neurodegeneration and cell death; also recorded: neurodegeneratve morphologies”; in data set [3] (48 hours post-transfection, listed as GFP-EFHC1), “signs of neurodegeneration and cell death”. Further, the “apoptosis (TUNEL) on EFHC1 overexpression” value in data set [3] (48 hours after transfection) is reported as “induced apoptosis; also recorded: overlap with TUNEL positive cells”. In addition, the “co-immunoprecipitation with Cav2.2 C-terminus” value in the data set on C-terminus of Cav2.2 is “did not”. Also, the “co-immunoprecipitation with Cav2.3 C-terminus” value in the data set with C-terminus of Cav2.3 is recorded as “co-immunoprecipitated”. Also, the “co-immunoprecipitation with Cav2.1 C-terminus” value in the data set on C-terminus of Cav2.1 was “did not”. Moreover, the “Ca2+ current density of P/Q-type VDCC (Cav2.1)” value with PQ type VDCC (Cav2.1) (cells co-transfected with P/Q-type VDCC and EFHC1 constructs) was “did not show such increase; also recorded: did not significantly affect”. The “Activation V0.5 (mV)” value in the data set with PQ type VDCC (Cav2.1) (half-maximal voltage of activation, mean ± SEM) is reported as 23.9 ± 1.0 mV. Moreover, the “Inactivation V0.5 (mV)” value with PQ type VDCC (Cav2.1) (half-maximal voltage of inactivation, mean ± SEM) is −8.0 ± 0.8 mV. In addition, in the data set with PQ type VDCC (Cav2.1) (patch-clamp), the “inactivation speed of P/Q type VDCC (decelerating effect on calcium inactivation)” value was “significantly decelerated”. In addition, in the data set with PQ type VDCC (Cav2.1) (patch-clamp), the “voltage dependence of activation” value is “did not significantly affect”. Further, the “voltage dependence of inactivation” value in the data set with PQ type VDCC (Cav2.1) (patch-clamp) is reported as “toward positive potentials”. For the same molecule, the “Activation k (mV)” value with PQ type VDCC (Cav2.1) (slope factor, mean ± SEM) turned out to be 8.63 ± 0.35 mV. Moreover, the “Inactivation K (mV)” value with PQ type VDCC (Cav2.1) (slope factor, mean ± SEM) is given as 6.73 ± 0.15 mV. Moreover, in the data set on Bid, the Bid activation result is “activated Bid in a number of EFHC1-expressing neurons”. For the same molecule, the entries for the “R-type Ca2+ current generated by Cav2.3” value with R-type VDCC (Cav2.3) and with R-type VDCC (Cav2.3) (listed as WT EFHC1) were “specifically increased; also recorded: significantly increased” and “significantly up-regulates”, respectively.
